Reference: paper PMC6326804, “Structural insights into a unique preference for 3′ terminal guanine of mirtron in Drosophila TUTase tailor” (Nucleic Acids Research, 2018)

How the values were obtained:
Tailor-ZnC = biological target: T1, Tailor-ZnC (Drosophila melanogaster, UniProt Q9VI58); assay: in-vitro nucleotide transferase assay, denaturing PAGE of Cy5-labelled RNA; type: biochemical; details: 1 mM UTP, 200 nM Cy5 truncated pre-mir-1003, 10 mM MgCl2, pH 7.2, 25 °C
T1 construct: core domain with possible N-terminal C2H2 zinc finger, residues 137-560; N-terminal 8xHis-SUMO tag cut by ULP1; E. coli host

Tailor-C [1] = biological target: T2, Tailor-C (Drosophila melanogaster, UniProt Q9VI58, D343A); assay: X-ray crystal structure (crystal soaking), […] A; type: binding; details: D343A crystals soaked with 10 mM UTP and 20 mM MgCl2 for 10 min; active site of catalytic groove
T2 construct: core catalytic domain, residues 202-560; N-terminal 8xHis-SUMO tag cut by ULP1; E. coli host

Tailor-C V328L = Tailor-C V328L (Drosophila, UniProt Q9VI58 202-560, V328L); assay: EMSA; no Mg2+ added; EMSA: 25 mM Tris-HCl pH 7.2, 100 mM NaCl, 5 mM DTT, 500 nM Cy5-RNA, 0-2.5 uM protein, 30 min on ice; 6% native gel at 4 C; details: protein: recombinant; tags: 8xHis-SUMO tag removed by ULP1; label: 5'-Cy5; single strand
Tailor-C V328R = Tailor-C V328R (Drosophila, UniProt Q9VI58 202-560, V328R); assay: as above; details: protein: recombinant; tags: 8xHis-SUMO tag removed by ULP1; label: 5'-Cy5; single strand
Tailor-C V328I = Tailor-C V328I (Drosophila, UniProt Q9VI58 202-560, V328I); assay: as above; details: protein: recombinant; tags: 8xHis-SUMO tag removed by ULP1; label: 5'-Cy5; single strand
Tailor-C [2] = biological target: Tailor-C (Drosophila, UniProt Q9VI58 202-560); assay: crystal structure; EMSA: 25 mM Tris-HCl pH 7.2, 100 mM NaCl, 5 mM DTT, 500 nM Cy5-RNA, 0-2.5 uM protein, 30 min on ice; 6% native gel at 4 C; details: protein: recombinant; tags: 8xHis-SUMO tag removed by ULP1; single strand
Sequence of Tailor-C (Drosophila, UniProt Q9VI58 202-560) (Q9VI58 202-560): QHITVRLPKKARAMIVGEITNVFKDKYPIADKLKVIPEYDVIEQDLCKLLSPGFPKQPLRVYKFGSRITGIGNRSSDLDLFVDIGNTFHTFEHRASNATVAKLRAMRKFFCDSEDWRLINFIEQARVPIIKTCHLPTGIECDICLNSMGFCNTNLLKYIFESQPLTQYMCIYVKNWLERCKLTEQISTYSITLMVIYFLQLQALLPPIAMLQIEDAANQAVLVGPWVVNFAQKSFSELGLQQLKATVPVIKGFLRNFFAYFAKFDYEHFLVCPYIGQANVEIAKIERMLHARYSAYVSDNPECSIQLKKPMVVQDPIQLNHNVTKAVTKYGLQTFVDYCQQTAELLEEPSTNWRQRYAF

T2 sequence (Q9VI58 202-560 D343A): as the sequence (Q9VI58 202-560) above, with D142A counted along it
Sequence of Tailor-C V328L (Q9VI58 202-560 V328L): as the sequence (Q9VI58 202-560) above, with V127L counted along it
T1 sequence (Q9VI58 137-560): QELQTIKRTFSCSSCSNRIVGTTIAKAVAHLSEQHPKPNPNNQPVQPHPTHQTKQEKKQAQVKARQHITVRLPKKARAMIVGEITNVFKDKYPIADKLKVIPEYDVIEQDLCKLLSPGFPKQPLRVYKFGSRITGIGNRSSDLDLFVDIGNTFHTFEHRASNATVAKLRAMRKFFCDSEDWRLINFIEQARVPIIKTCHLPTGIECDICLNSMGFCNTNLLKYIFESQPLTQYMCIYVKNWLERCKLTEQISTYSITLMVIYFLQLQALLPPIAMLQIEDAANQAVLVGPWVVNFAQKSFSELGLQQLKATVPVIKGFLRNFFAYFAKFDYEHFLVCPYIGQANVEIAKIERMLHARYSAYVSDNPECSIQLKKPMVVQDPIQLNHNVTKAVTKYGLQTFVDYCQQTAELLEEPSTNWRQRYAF
Sequence of Tailor-C V328I (Q9VI58 202-560 V328I): as the sequence (Q9VI58 202-560) above, with V127I counted along it
Sequence of Tailor-C V328R (Q9VI58 202-560 V328R): as the sequence (Q9VI58 202-560) above, with V127R counted along it

O=c1ccn([C@@H]2O[C@H](COP(=O)(O)OP(=O)(O)OP(=O)(O)O)[C@@H](O)[C@H]2O)c(=O)[nH]1 [UTP]
in-vitro nucleotide transferase assay, denaturing PAGE of Cy5-labelled RNA (Tailor-ZnC): Purified Tailor-ZnC, Tailor-C and mutants were assayed for oligouridylation activity | X-ray crystal structure (crystal soaking), 1.74 A (Tailor-C [1]): The crystals of the complex of D343A with UTP were obtained by soaking crystals

CAUAUUCACAG (ssRNA) [truncated miR-1003 (3'G)]
binding result (Tailor-C V328L): binds | binding result (Tailor-C V328R): binds | binding result (Tailor-C V328I): binds

AGUU (ssRNA)
binding result (Tailor-C [2]): binds

AGU (ssRNA)
binding result (Tailor-C [2]): binds

UUUU (ssRNA) [U4]
binding result (Tailor-C [2]): binds
